In this test the target is Lck(h) (lymphocyte-specific protein tyrosine kinase) (human) (UniProt P06239). As to the kind of experiment: cell-based or functional assay.
Lck(h) (lymphocyte-specific protein tyrosine kinase) (human), sequence (P06239 whole entry): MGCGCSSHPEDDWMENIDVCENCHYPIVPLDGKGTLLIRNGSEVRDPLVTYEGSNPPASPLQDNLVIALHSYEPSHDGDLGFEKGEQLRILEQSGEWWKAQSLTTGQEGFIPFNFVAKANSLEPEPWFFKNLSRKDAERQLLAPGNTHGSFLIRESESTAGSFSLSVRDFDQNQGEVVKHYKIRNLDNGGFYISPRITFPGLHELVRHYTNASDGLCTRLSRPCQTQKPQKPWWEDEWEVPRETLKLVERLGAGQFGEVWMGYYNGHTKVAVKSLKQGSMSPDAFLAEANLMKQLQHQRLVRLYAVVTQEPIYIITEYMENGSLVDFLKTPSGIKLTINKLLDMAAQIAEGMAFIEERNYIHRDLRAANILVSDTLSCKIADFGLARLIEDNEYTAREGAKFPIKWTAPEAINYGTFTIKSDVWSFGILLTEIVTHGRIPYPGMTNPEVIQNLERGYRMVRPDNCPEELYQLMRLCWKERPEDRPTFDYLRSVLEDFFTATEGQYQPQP

In the case of rskaknplyrrrrrrrrr (IKD14800) (peptide), the Lck activity, percentage relative to control, in vitro kinase assay, peptide 1 µM (% increase in Lck activity) is 490.

The values are drawn from US20260103488A1.
